Where only a bound is given, the exact number is not on record here.

This data set can be described thus: soluble fraction after stress (log2 fold change); higher = more stays soluble; pooled small domains, quantitative proteomics. To be noted: stress: pH 4. The procedure, abridged: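 Small protein domains from pooled custom libraries were exposed to pH 4, then quantified with high-throughput quantitative proteomics. The fold change in how much of each domain remains soluble is read as aggregation propensity. It is given as log2, with higher values meaning more stayed soluble.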
For the sequence “HMSRDYKTELQERLQVNGPVKIEYQVIAEDESKPSFKVQLLVNDKKISEGQGRNKKAAEQQAAQAAL”, the “soluble fraction (log2)” value was determined as 0.0788.
The result for “HMSREEFLTELRKALQGRVSQQTVNDNLRYYEEYILTESHKGKTEAEVIAELGNPRLLAKSIIDAENAT” reads -0.0903; that for “HMSRESNISTGRQLLEAQLPTWGYKKVEDIPSKQMKTALDAFNYKDVESLLQGLGEGSVALTTALRRLMP”, -0.926.
Regarding “HMSRFLEGILQRRAGGKNYFVPDDGSNPIFIADRNSAGAANGDRVRIAQFARRPRSGPEGEVVEILKRAK”, the “soluble fraction (log2)” value stood at 0.153.
On to “HMSRGAIVTGTVIEKNQSGIYVDLGYKSDGIVPIEEFDGEESKYNVGDQIRVYVKKVDDGHGQLML”, for which the “soluble fraction (log2)” value was -0.135.
In the case of “HMSRGTRIDPNWQPSPEDRALARAEGFSDPEIDREALQFRDYWLGASGSNAVKLDWSATWRNWVRRAATNF”, the “soluble fraction (log2)” value is -0.204.
The result for “HMSRKERERSQHRRDILAAGEKIFAQKGYFNATIEEIAREAEFSVGTIYNFFSNKETLYQEIIRSI” reads -0.43.
For “HMSRLQDAELQAQIDKMAGAMQLRDIPVYVQDIPTINGLAAPDGRVFITQGFIDKYKLGEVSAGEIASVI” the value was 0.316; for “HMSRPLISNMLRLLNLPPTVQRKVAAGVISAGHARALLGLNDEKEIEKLANRIVAEGLSVRATEEIVAIA”, -1.28.
The result for “HMSRWHEFLNKSEDGMKELDEQNQKVLTLLILQRFYQTPFQAKEDEEFYREFFERLSSVNEILG” reads -0.283; that for “HMSSAYLTVRGIDIDVIYKDIKNLHIAVYPPFGRVRVAAPSHLDDDQVRLAVIQRLTWIKRQRERLRST”, -0.336.
Consider “HMSSDEAEYKLLLGQEGVAKSPLRPSGVVDFSGRRLDVQTLGDFIESGETVVVKQVNGHRVLVERK”, for which the “soluble fraction (log2)” value came to 0.0409.
The result for “HMSSDEEQLATLTRLLQKQEQIIQTLGPRNPMVSLQQYANTITKVIEMAGFKDTSQFINSQIP” reads -0.0429; that for “HMSSDLESVIGTHSQEANFALRSWGWIQPDETWKNLRPDQVSQILERANEFMAKAIESFANAQSE”, -0.984.
On to “HMSSDLLGVRVRRARARAGLTRRRLSLLSGVSERFLAQLESGQGNISIVLIRRVAAALGAELVELIGS”, for which the “soluble fraction (log2)” value was -0.0528.
The result for “HMSSEDTQSRDRARKELSNEMSRIMKRYGLDYQPRDNADDIMNRLKAAGADENTLAYVQEKLK” reads 0.0559; that for “HMSSEITYDKFIEMVDKDQVKEVTLQSGVLTVVPKIQKSYYQNASYKVNQMEDVDALTKRLEGTGIVFHY”, 0.129; that for “HMSSEITYDKFIEMVEEGNVKEVTLQSDTLTIKPKHQDSAFSEKEYYTRQMESADQLTERLEGTGIEFHS”, -0.642.
The result for “HMSSEQRSVLFPNLAETDKVAVIEALMAAGVNARVDSASGRVTVPSGDYYNSRAILAAQGLPTS” reads -0.175.
Turning to “HMSSETTVPAVVGIKEDKARQLASEQGLRLRVKSREESADVEEGIIISQDPNSNTKVKKGDEIEVVVS”, the “soluble fraction (log2)” value was found to be 0.32.
For “HMSSFSESFHKALNNLDDKHKSVFSLRHFEGFSMKEIAETLNINEGTVKSRLFYATKTLAGALKEF” the value was -1.29; for “HMSSGKTGTITLQPKQTVYGITKQYKISEADLRKLNPQLDSNLKIGDKITLPLDNIQRYSDSSSNVAQT”, 0.22.
For “HMSSGLLTVQEQRILEHLANGERNGDIAGRLHISEGTVKWHLHNMYRKLDAATRTQAVARARALRL” the value was -0.428; for “HMSSIGERISDVRKARGYTQDQLAERIHVSRQTISHWENERALPDFESIKQLSQVLGYDFSS”, 0.0836.
For “HMSSIHQDAKQQLHEYIRTYIQPLMRAGKQVTVWDIIGHVTIRKPKLVQKIGTQQLINMVQDLLE” the value was -0.302; for “HMSSKSDQLYLQLRRRISAMKDGEPFPTVRQLMTEYQVSQSTVTPAINQLKEKGLIEAYVGRGSFVSKK”, 0.161; for “HMSSKTKVEDLGLSTRTLNALIGGSIKTAGGLTRKSESDLLSLDGLGEKGITEIKEALENIGLSLK”, 0.0218.
Take “HMSSLKKISIDELSPGMYVHSIVEQKGSVKIKSQGKVLKQAVVDALRKRGVKTLLIDLSKQFNPETGEP”: the “soluble fraction (log2)” value is 0.346.
The result for “HMSSLTPRETEVLSRMAQGDANTSIAERLVITEKAVQKHINAIFAKLGLAEEPTSARRVLAVLAFLR” reads -0.407; that for “HMSSLTQREYEIAELVADGLSNKAIAAELSISHTTAARHVANIMNKLGFNSRSQIAAWVADRAQG”, -0.46; that for “HMSSNLSLHKEGNKIVILGLEGKSVIEVYDLMGRLLSSQTNYNPKQEITLLQPVIIRVTDTQQTKSFKV”, -0.132.
For “HMSSNLTVFTRNNAIIVNSDVVRKLNVFAVDGRLVRSVDLSVGENVINNISRGMYLIDKQKVVV” the value was not below 0.43; for “HMSSPDMSLLYSELDVKDSGQIVTILEQRNIPYEVRNNGSQIYIPSNNVQRIRLSLAQEGLPSG”, 0.152.
As to “HMSSPTAKATGSSVNIRKSASTGAAVLKRVEKGTVLEAVSISDGWVKVKYSGVTGYVSADYVKVSGL”, the “soluble fraction (log2)” value was determined as 0.154.
Turning to “HMSSQGQNTKTGTVTASALYVRSGAGTNYSQIGYLLKNTKVEIVGQTGSWYKIKFGSGTGYVSSKYIK”, the “soluble fraction (log2)” value was 0.0256.
For “HMSSQLETTFATLIGKRVSIRLHDPEGGFRDILGHLESPYSLRNRHGNLIEFAHDQIFLWREVI” the value was -1.18; for “HMSSRNLIIFYDSPQAENALLATAERYGAILLHHYRNLHGIAVAIPADKDMAQAVTYFSRQPGVRQV”, 0.103; for “HMSSSKVAISQFEELVDQGQVREVVIEGSTATGTTAAGRRFAAEIPPGGMELFLSKLDDAGTTYEYSPP”, 0.127.
The result for “HMSSSYTEMQLDKLKKLLEKETLLSSEKSELKSLIHDFDKIPEVVSPLIVGEYLRLKNKYIAVINSLE” reads -0.322; that for “HMSSSYTEMQLERFKELLNKETLLSSEKNELKNLISDFDKISEIVSPLVVGAYLQLKNEHIETINSLG”, -0.846; that for “HMSSTAIQAMIRRLIDGEDPRKPLSDARLAETLKASGVPVARRTVAKYRESMSIPSSQDRLRI”, 0.0607.
The result for “HMSSTSTKTQNIVHIVKSGETLSAIASKYGVSVDNIKKWNNLSSDKLSIGQKLKINPTTQTSS” reads -0.186.
Turning to “HMSSVEEILQTLGGRIRTQRLAQGISQQVLADRAGLSLGAVRQLEGSGQSGLDTLVRVLFVLGIVDEL”, the “soluble fraction (log2)” value was -1.57.
As for “HMSSVHTMEVKSTTQIKVLDENKNLSSYYSMKNPVSFNYRLFFLNQDELKKLQEDLKTNNDIQSIDIKYA”, the “soluble fraction (log2)” value was -0.944.
For “HMSTALTPLTTREREVLALMAEGLTNSGIAARLVLTDRTVETHVSRILHKLGLGETTTNEHRRVLAVLRYL” the value was -0.716.
On to “HMSTASPEELRQTPERRRLIEYLREHGGHGRTSEIAAALGIDDSTASRLLRRLADNGLIVRTQYGEYTLLQ”, for which the “soluble fraction (log2)” value was -0.0496.
As for “HMSTEAVVMSSSVSVKSSPDKASTDLFVLHEGTKVRTVSELGDWREIVIADGKKGWVEARTIET”, the “soluble fraction (log2)” value amounted to 0.151.
For “HMSTEPLALVGKTGIAATVLRPSGRIEVDDKYYDAVSLGAFIEKGEMVNIVKYENLQLYVAKL” the value was -0.0114.
The result for “HMSTFAQNLRALMEKRGVSQNELARSAGLTQSAINKILTGKTKQPGIDTTEAIARVLNVSVAQLIYT” reads 0.22; that for “HMSTFTPYLVKVTTSVLNIRKGAGTNYGTNGSIRDMGTYTIVAEADGQGASKWGKLKSGAGWISLDYTKK”, 0.184; that for “HMSTILERLIMLQEQSGMNQKQLQKELGLSNSAFSDWKKGKGRPSVEALVRFSEFFGVSMDWLAFG”, -0.845.
The result for “HMSTKRQKELLEYVDRFITEHGYGPSYREIMNAIGYKSVSTVAIHIDGLIAKGYLRKRDNSARSLEVV” reads 0.249; that for “HMSTKYSSNIISLVKGLMEEDQYKDLMGPPLKKEIIKKVESITDTFPYKFDKDDKEFIVKKVLISLRK”, 0.148; that for “HMSTLKSALDEIPGIGAARKRALLNHFGSTRVISSVGVKDLEQVEGVSKKIALLIYGYFHDK”, not below 0.43.
Turning to “HMSTLSIHIPDKFAGQRLDQALAELYSQFSRSRLQQWLNDGELLVDGKSVKANKKVLGGEFIQILK”, the “soluble fraction (log2)” value is -0.00612.
For “HMSTPENLGGRNTAKARISWLENGVKQELESDFPAAEVVKLSSRFGGEVPELTVIRPSLEDIYLKMIG” the value was -0.269; for “HMSTPLVATLRKRIIDGHYPPGERLAEIPVAEAFGVSRTPVRLAFRTLEQEGLLEKAGKRGYAVRA”, 0.0231; for “HMSTQVPDVKERSQEEARSILESAGFKVTPAVKTEDSADIAKDMVTKTDPAAGQSVPKGTTITIYVSS”, 0.298.
For “HMSTRLIGEIGVVTKDLGAGLKENGSIQIGREEWPAETKDMEHIPMGTRVKVIHIEGTRLVVEA” the value was -0.266; for “HMSTSRAEIIAFLKSNPSSEYKHELETKLDEMDWAEAVKGNSEESFLAYKQRQPNGTHNGEADEKLKVLLV”, -0.171; for “HMSTVISPLPGNIIKVLVPEGKSVKRGDTILTIESMKMENSIKAAYDGVVKKIYVQQAQIVMQGDPLFDL”, -1.05.
The result for “HMSVALSENIKTRRKALKMSQEYVAEQLDISRQAVAKWEAGKSEPTTENLVKLAALFEMSVSELVE” reads 0.35.
With “HMSVDDVALRLEFGPSDAEALAFVHRHGAILSETTDRDTGVVSVHVRLSEADAGRFNQRYGV”, the “soluble fraction (log2)” value is -0.233.
The result for “HMSVDDYLKFSGSGTYWNTQDRGKTYLVNGQQRPLRDKEYLPDVMHRHVIDFITKHRDRPFYIYYSM” reads -0.0438; that for “HMSVDVEGNQRIPTEQVLSELRDVGVSFGKRVSGLNADTIRNQMIINNDEIAWLGVNVRGSRVYVEITERI”, -0.0219; that for “HMSVERIEPPLPLIDTLLALRDALERPLSREENAFLSRRFAGGATRAQIDALAAQFRGAAAAESKV”, -0.324.
The result for “HMSVETSDLLPLIEQVLSLNPDKVKEYQNGKKGLLGFFMGQIKQTAGVAIDVGTLKPLLEDALHKDL” reads -1.06.
As for “HMSVEYRKTLSDGNEYQIVKEKNGYVIKKSLNEGLDYLEPMKNRKYYSSYSQAFKRLNLIAKEVNINEGYD”, the “soluble fraction (log2)” value is 0.0946.
For “HMSVFGMEIGKTTEAEAGRMYRLNKEQLNPYSGGYQYSVNPKAIDFSGLEQVTLIFDEKKVLVYVQAV” the value was -0.179.

(Values after the domain aggregation screens of Martell et al. (2025).)
